Reference: the supplement of paper PMC9112550, “Optimization of the antimicrobial peptide Bac7 by deep mutational scanning” (BMC Biology, 2022)

System: Escherichia coli TOP10
Assay: shrunken log2 fold change of peptide-encoding DNA abundance (4.5 h post-induction vs induction); higher = less antimicrobial activity (less host growth inhibition)
Conditions: time post-induction: 4.5 h; library: site-saturation at positions 5, 18, 19, 20
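Note: peptides expressed intracellularly from a pBAD plasmid library in pooled LB shake-flask culture, induced with 0.3% L-arabinose, DNA abundance read by NGS, three biological replicates, DESeq2 with apeglm shrinkage.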

Row | Sequence | shrunken log2 fold change
1 | RRIRIRPPRLPRPRPRPVFVPRP | -0.397
2 | RRIRIRPPRLPRPRPRPVGGPRP | 0.0792
3 | RRIRIRPPRLPRPRPRPVGMPRP | 0.0752
4 | RRIRIRPPRLPRPRPRPVHIPRP | -0.155
5 | RRIRIRPPRLPRPRPRPVHSPRP | -0.0158
6 | RRIRIRPPRLPRPRPRPVIAPRP | -0.388
7 | RRIRIRPPRLPRPRPRPVIFPRP | -0.402
8 | RRIRIRPPRLPRPRPRPVIVPRP | -0.214
9 | RRIRIRPPRLPRPRPRPVLAPRP | -0.0133
10 | RRIRIRPPRLPRPRPRPVLPPRP | -0.242
11 | RRIRIRPPRLPRPRPRPVLRPRP | -0.0796
12 | RRIRIRPPRLPRPRPRPVMFPRP | -0.255
13 | RRIRIRPPRLPRPRPRPVNLPRP | -0.116
14 | RRIRIRPPRLPRPRPRPVNMPRP | -0.103
15 | RRIRIRPPRLPRPRPRPVNNPRP | -0.272
16 | RRIRIRPPRLPRPRPRPVNYPRP | -0.0508
17 | RRIRIRPPRLPRPRPRPVRFPRP | -0.16
18 | RRIRIRPPRLPRPRPRPVRQPRP | -0.0328
19 | RRIRIRPPRLPRPRPRPVTEPRP | -0.109
20 | RRIRIRPPRLPRPRPRPVVCPRP | -0.000979
21 | RRIRIRPPRLPRPRPRPVVFPRP | 0.0165
22 | RRIRIRPPRLPRPRPRPVWEPRP | 0.108
23 | RRIRIRPPRLPRPRPRPVWFPRP | -0.125
24 | RRIRIRPPRLPRPRPRPVWLPRP | 0.0726
25 | RRIRIRPPRLPRPRPRPWCCPRP | -0.481

Row | Sequence | shrunken log2 fold change
26 | RRIRIRPPRLPRPRPRPWDGPRP | -0.094
27 | RRIRIRPPRLPRPRPRPWDIPRP | -0.00968
28 | RRIRIRPPRLPRPRPRPWEGPRP | -0.152
29 | RRIRIRPPRLPRPRPRPWEKPRP | -0.00992
30 | RRIRIRPPRLPRPRPRPWFCPRP | -0.322
31 | RRIRIRPPRLPRPRPRPWFWPRP | -0.313
32 | RRIRIRPPRLPRPRPRPWHKPRP | -0.00213
33 | RRIRIRPPRLPRPRPRPWHVPRP | -0.0239
34 | RRIRIRPPRLPRPRPRPWIFPRP | -0.498
35 | RRIRIRPPRLPRPRPRPWLAPRP | -0.12
36 | RRIRIRPPRLPRPRPRPWMIPRP | -0.0493
37 | RRIRIRPPRLPRPRPRPWNGPRP | -0.172
38 | RRIRIRPPRLPRPRPRPWPAPRP | -0.768
39 | RRIRIRPPRLPRPRPRPWQPPRP | -0.0185
40 | RRIRIRPPRLPRPRPRPWSGPRP | -0.139
41 | RRIRIRPPRLPRPRPRPWSNPRP | -0.0121
42 | RRIRIRPPRLPRPRPRPWTDPRP | -0.111
43 | RRIRIRPPRLPRPRPRPWVAPRP | -0.00986
44 | RRIRIRPPRLPRPRPRPWVQPRP | -0.0105
45 | RRIRIRPPRLPRPRPRPWVRPRP | 0.0146
46 | RRIRIRPPRLPRPRPRPWWEPRP | -0.109
47 | RRIRIRPPRLPRPRPRPWWGPRP | 0.0378
48 | RRIRIRPPRLPRPRPRPWWKPRP | -0.102
49 | RRIRIRPPRLPRPRPRPYAGPRP | -0.417
50 | RRIRIRPPRLPRPRPRPYCDPRP | -0.0269

Row | Sequence | shrunken log2 fold change
51 | RRIRIRPPRLPRPRPRPYDCPRP | 0.0019
52 | RRIRIRPPRLPRPRPRPYDIPRP | -0.0903
53 | RRIRIRPPRLPRPRPRPYFFPRP | -0.875
54 | RRIRIRPPRLPRPRPRPYFWPRP | -0.388
55 | RRIRIRPPRLPRPRPRPYGDPRP | 0.0112
56 | RRIRIRPPRLPRPRPRPYHAPRP | -0.0781
57 | RRIRIRPPRLPRPRPRPYHEPRP | -0.216
58 | RRIRIRPPRLPRPRPRPYHFPRP | -0.248
59 | RRIRIRPPRLPRPRPRPYHLPRP | -0.115
60 | RRIRIRPPRLPRPRPRPYIHPRP | -1.3
61 | RRIRIRPPRLPRPRPRPYIIPRP | -0.403
62 | RRIRIRPPRLPRPRPRPYILPRP | -0.463
63 | RRIRIRPPRLPRPRPRPYIRPRP | -0.159
64 | RRIRIRPPRLPRPRPRPYLCPRP | -0.0937
65 | RRIRIRPPRLPRPRPRPYLTPRP | -1.45
66 | RRIRIRPPRLPRPRPRPYMMPRP | -1.26
67 | RRIRIRPPRLPRPRPRPYMWPRP | -0.198
68 | RRIRIRPPRLPRPRPRPYNIPRP | -0.257
69 | RRIRIRPPRLPRPRPRPYNMPRP | -1.39
70 | RRIRIRPPRLPRPRPRPYNPPRP | -0.276
71 | RRIRIRPPRLPRPRPRPYPKPRP | -0.0684
72 | RRIRIRPPRLPRPRPRPYRRPRP | -0.648
73 | RRIRIRPPRLPRPRPRPYSKPRP | -1.2
74 | RRIRIRPPRLPRPRPRPYTTPRP | -0.0313
75 | RRIRIRPPRLPRPRPRPYVCPRP | 0.0199

Row | Sequence | shrunken log2 fold change
76 | RRIRIRPPRLPRPRPRPYVQPRP | -0.311
77 | RRIRIRPPRLPRPRPRPYWRPRP | -0.478
78 | RRIRIRPPRLPRPRPRPYWWPRP | -0.259
79 | RRIRIRPPRLPRPRPRPYYCPRP | -0.529
80 | RRIRIRPPRLPRPRPRPYYSPRP | -0.213
81 | RRIRKRPPRLPRPRPRPAAAPRP | 0.896
82 | RRIRKRPPRLPRPRPRPAAEPRP | 1.12
83 | RRIRKRPPRLPRPRPRPAAFPRP | 0.59
84 | RRIRKRPPRLPRPRPRPACEPRP | 0.168
85 | RRIRKRPPRLPRPRPRPACFPRP | -0.0348
86 | RRIRKRPPRLPRPRPRPACYPRP | 0.13
87 | RRIRKRPPRLPRPRPRPALLPRP | 0.246
88 | RRIRKRPPRLPRPRPRPALRPRP | 0.455
89 | RRIRKRPPRLPRPRPRPAMDPRP | 0.231
90 | RRIRKRPPRLPRPRPRPAMNPRP | -0.0724
91 | RRIRKRPPRLPRPRPRPANEPRP | 0.151
92 | RRIRKRPPRLPRPRPRPANKPRP | 0.142
93 | RRIRKRPPRLPRPRPRPANMPRP | -0.167
94 | RRIRKRPPRLPRPRPRPAPEPRP | 1.26
95 | RRIRKRPPRLPRPRPRPAPWPRP | 0.82
96 | RRIRKRPPRLPRPRPRPAPYPRP | 0.212
97 | RRIRKRPPRLPRPRPRPAQIPRP | 0.342
98 | RRIRKRPPRLPRPRPRPASQPRP | 0.0905
99 | RRIRKRPPRLPRPRPRPATCPRP | 0.0272
100 | RRIRKRPPRLPRPRPRPATRPRP | 0.423

Row | Sequence | shrunken log2 fold change
101 | RRIRKRPPRLPRPRPRPAWPPRP | 0.675
102 | RRIRKRPPRLPRPRPRPAYKPRP | 0.354
103 | RRIRKRPPRLPRPRPRPAYNPRP | 0.0771
104 | RRIRKRPPRLPRPRPRPAYQPRP | 0.0163
105 | RRIRKRPPRLPRPRPRPCGFPRP | 0.279
106 | RRIRKRPPRLPRPRPRPCHGPRP | 0.0847
107 | RRIRKRPPRLPRPRPRPCICPRP | -0.14
108 | RRIRKRPPRLPRPRPRPCIYPRP | -0.198
109 | RRIRKRPPRLPRPRPRPCKDPRP | 0.0741
110 | RRIRKRPPRLPRPRPRPCKRPRP | -0.194
111 | RRIRKRPPRLPRPRPRPCLRPRP | -0.081
112 | RRIRKRPPRLPRPRPRPCMSPRP | -0.0865
113 | RRIRKRPPRLPRPRPRPCPVPRP | -0.106
114 | RRIRKRPPRLPRPRPRPCRTPRP | 0.0438
115 | RRIRKRPPRLPRPRPRPCTNPRP | -0.0404
116 | RRIRKRPPRLPRPRPRPCVDPRP | 0.268
117 | RRIRKRPPRLPRPRPRPCVIPRP | 0.0227
118 | RRIRKRPPRLPRPRPRPDAKPRP | 0.165
119 | RRIRKRPPRLPRPRPRPDCRPRP | -0.00777
120 | RRIRKRPPRLPRPRPRPDCYPRP | 0.012
121 | RRIRKRPPRLPRPRPRPDELPRP | 2.45
122 | RRIRKRPPRLPRPRPRPDEVPRP | 1.1
123 | RRIRKRPPRLPRPRPRPDFNPRP | 0.0068
124 | RRIRKRPPRLPRPRPRPDFWPRP | 1.06
125 | RRIRKRPPRLPRPRPRPDGSPRP | 0.132

Row | Sequence | shrunken log2 fold change
126 | RRIRKRPPRLPRPRPRPDHKPRP | -0.0248
127 | RRIRKRPPRLPRPRPRPDIEPRP | 2.53
128 | RRIRKRPPRLPRPRPRPDKYPRP | -0.309
129 | RRIRKRPPRLPRPRPRPDLIPRP | -0.275
130 | RRIRKRPPRLPRPRPRPDLYPRP | -0.00937
131 | RRIRKRPPRLPRPRPRPDMLPRP | -0.0389
132 | RRIRKRPPRLPRPRPRPDMVPRP | -0.00254
133 | RRIRKRPPRLPRPRPRPDNAPRP | 0.05
134 | RRIRKRPPRLPRPRPRPDPEPRP | -0.0797
135 | RRIRKRPPRLPRPRPRPDPTPRP | 0.273
136 | RRIRKRPPRLPRPRPRPDRMPRP | 1.19
137 | RRIRKRPPRLPRPRPRPDSVPRP | 0.0996
138 | RRIRKRPPRLPRPRPRPDTGPRP | -0.0244
139 | RRIRKRPPRLPRPRPRPDVAPRP | 0.0256
140 | RRIRKRPPRLPRPRPRPDVIPRP | 0.153
141 | RRIRKRPPRLPRPRPRPDYFPRP | 0.0333
142 | RRIRKRPPRLPRPRPRPDYWPRP | 0.0865
143 | RRIRKRPPRLPRPRPRPECEPRP | 0.0869
144 | RRIRKRPPRLPRPRPRPECVPRP | 1.69
145 | RRIRKRPPRLPRPRPRPEDNPRP | 0.749
146 | RRIRKRPPRLPRPRPRPEEGPRP | 0.0325
147 | RRIRKRPPRLPRPRPRPEEPPRP | 3.09
148 | RRIRKRPPRLPRPRPRPEEVPRP | 2.83
149 | RRIRKRPPRLPRPRPRPEFDPRP | 2.46
150 | RRIRKRPPRLPRPRPRPEFEPRP | 1.34
